Measurements taken from patent publication US20220331363A1.

Biological target: human Burkitt's lymphoma cell Daudi
Assay: flow cytometry (FACS) on Daudi cells, which Example 3 says do not express BCMA

Substance: murine anti-BCMA antibody C11D5.3 (scFv), reference antibody
- EC50: 58.2 µg/mL
